T1: CD20 on human Raji B cells (human, UniProt P11836 1-297)
T1 construct: whole, on cells; The target is presented on Raji cells; also called CD20+ human B lymphoma (Raji) cells; CD-20+ human Raji B cells
T1 sequence (looked up): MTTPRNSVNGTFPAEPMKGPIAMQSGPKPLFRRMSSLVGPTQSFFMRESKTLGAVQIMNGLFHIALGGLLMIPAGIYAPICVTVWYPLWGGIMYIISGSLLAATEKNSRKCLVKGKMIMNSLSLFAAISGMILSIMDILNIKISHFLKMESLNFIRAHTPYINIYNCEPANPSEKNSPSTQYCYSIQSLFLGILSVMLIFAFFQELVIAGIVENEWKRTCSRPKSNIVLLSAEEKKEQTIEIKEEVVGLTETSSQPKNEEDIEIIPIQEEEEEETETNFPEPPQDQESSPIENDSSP


Experiments:
[1] = target: CD20 on human Raji B cells (human) (UniProt P11836); assay: flow cytometry on Raji cells, anti-human IgG-PE detection
[2] = target: T1, CD20 on human Raji B cells; assay: as above

| Molecule | Mean Fluorescence Intensity [1] | fluorescence intensity, fold over background [1] | fluorescence intensity, fold over background [2] |
| --- | --- | --- | --- |
| Rituximab present in mouse serum after injection of a dual cassette, single plasmid Rituximab DNA vector (antibody) | 3530 | > 10 fold |  |
| recombinant Rituximab protein (antibody, V domains shown) VH: QVQLQQPGAELVKPGASVKMSCKASGYTFTSYNMHWVKQTPGRGLEWIGAIYPGNGDTSYNQKFKGKATLTADKSSSTAYMQLSSLTSEDSAVYYCARSTYYGGDWYFNVWGAGTTVTVSA VL: QIVLSQSPAILSASPGEKVTMTCRASSSVSYIHWFQQKPGSSPKPWIYATSNLASGVPVRFSGSGSGTSYSLTISRVEAEDAATYYCQQWTSNPPTFGGGTKLEIK |  |  | > 10 fold |

Source: patent US20170080108A1 (DNARX, published 2017)
